Assay results as given in the supplement of paper PMC9112550, “Optimization of the antimicrobial peptide Bac7 by deep mutational scanning” (BMC Biology, 2022).

tested on: Escherichia coli TOP10; assay: shrunken log2 fold change of peptide-encoding DNA abundance (4.5 h post-induction vs induction); higher = less antimicrobial activity (less host growth inhibition); settings: time post-induction: 4.5 h; library: site-saturation at positions 5, 18, 19, 20
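Further: peptides expressed intracellularly from a pBAD plasmid library in pooled LB shake-flask culture, induced with 0.3% L-arabinose, DNA abundance read by NGS, three biological replicates, DESeq2 with apeglm shrinkage.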

Point of comparison: RRIRGRPPRLPRPRPRPLNGPRP, “shrunken log2 fold change” value 0.11. Against it:
- RRIRHRPPRLPRPRPRPCPCPRP — lower, -0.114
- RRIRRRPPRLPRPRPRPRARPRP — higher, 0.618
- RRIRSRPPRLPRPRPRPEWSPRP — within 0.2 log units, 0.233
- RRIRRRPPRLPRPRPRPKMMPRP — within 0.2 log units, 0.296
- RRIRRRPPRLPRPRPRPWWPPRP — within 0.2 log units, 0.0939
- RRIRNRPPRLPRPRPRPTHWPRP — higher, 0.661
- RRIRIRPPRLPRPRPRPTQPPRP — within 0.2 log units, -0.0427
- RRIRIRPPRLPRPRPRPCRWPRP — within 0.2 log units, 0.0527
- RRIRTRPPRLPRPRPRPLSFPRP — lower, -0.124
- RRIRYRPPRLPRPRPRPVPFPRP — lower, -0.348
- RRIRIRPPRLPRPRPRPHHKPRP — lower, -1.18
- RRIRLRPPRLPRPRPRPCHHPRP — lower, -0.322
- RRIRGRPPRLPRPRPRPLTTPRP — higher, 1.82
- RRIRERPPRLPRPRPRPMVIPRP — within 0.2 log units, -0.0351
- RRIRNRPPRLPRPRPRPDRVPRP — lower, -0.275
- RRIRWRPPRLPRPRPRPLYIPRP — lower, -0.872
- RRIRHRPPRLPRPRPRPDIPPRP — lower, -0.193
- RRIRARPPRLPRPRPRPLKWPRP — within 0.2 log units, 0.218
- RRIRHRPPRLPRPRPRPSSWPRP — within 0.2 log units, -0.0281
- RRIRLRPPRLPRPRPRPDCHPRP — within 0.2 log units, 0.092
- RRIRVRPPRLPRPRPRPSCVPRP — lower, -0.583
- RRIRWRPPRLPRPRPRPMPWPRP — within 0.2 log units, 0.0161
- RRIRFRPPRLPRPRPRPLFSPRP — lower, -0.376
- RRIRCRPPRLPRPRPRPIEKPRP — within 0.2 log units, -0.0167
- RRIRTRPPRLPRPRPRPLCVPRP — lower, -0.357
- RRIRERPPRLPRPRPRPLMAPRP — lower, -0.169
- RRIRFRPPRLPRPRPRPSHEPRP — within 0.2 log units, 0.204
- RRIRTRPPRLPRPRPRPQHGPRP — lower, -0.187
- RRIRIRPPRLPRPRPRPRPMPRP — within 0.2 log units, 0.129
- RRIRIRPPRLPRPRPRPVCWPRP — higher, 0.32
- RRIRGRPPRLPRPRPRPYQNPRP — within 0.2 log units, -0.0136
- RRIRYRPPRLPRPRPRPPMDPRP — lower, -0.582
- RRIRERPPRLPRPRPRPAFWPRP — higher, 0.632
- RRIRDRPPRLPRPRPRPCYFPRP — lower, -0.31
- RRIRFRPPRLPRPRPRPAVTPRP — lower, -0.347
- RRIRARPPRLPRPRPRPPLAPRP — higher, 0.861
- RRIRPRPPRLPRPRPRPWTCPRP — within 0.2 log units, -0.0575
- RRIRDRPPRLPRPRPRPTDCPRP — within 0.2 log units, 0.00372
- RRIRYRPPRLPRPRPRPILEPRP — within 0.2 log units, 0.0174
- RRIRNRPPRLPRPRPRPDPGPRP — within 0.2 log units, 0.0569
- RRIRVRPPRLPRPRPRPVMLPRP — within 0.2 log units, -0.0602
- RRIRDRPPRLPRPRPRPNIIPRP — lower, -0.117
- RRIRRRPPRLPRPRPRPLWSPRP — within 0.2 log units, 0.136
- RRIRCRPPRLPRPRPRPDRPPRP — within 0.2 log units, 0.19
- RRIRRRPPRLPRPRPRPFEEPRP — within 0.2 log units, 0.251
- RRIRLRPPRLPRPRPRPKHGPRP — within 0.2 log units, -0.0363
- RRIRNRPPRLPRPRPRPAKDPRP — within 0.2 log units, 0.0231
- RRIRHRPPRLPRPRPRPRKRPRP — within 0.2 log units, 0.246
- RRIRIRPPRLPRPRPRPFNRPRP — within 0.2 log units, 0.0284
- RRIRSRPPRLPRPRPRPGKEPRP — within 0.2 log units, -0.0291
- RRIRFRPPRLPRPRPRPNKEPRP — within 0.2 log units, 0.0307
- RRIRMRPPRLPRPRPRPPSGPRP — higher, 0.525
- RRIRCRPPRLPRPRPRPKKWPRP — within 0.2 log units, 0.00275
- RRIRQRPPRLPRPRPRPHGGPRP — within 0.2 log units, -0.0841
- RRIRPRPPRLPRPRPRPLIRPRP — lower, -0.218
- RRIRWRPPRLPRPRPRPHMWPRP — lower, -0.138
- RRIRWRPPRLPRPRPRPVGEPRP — higher, 1.01
- RRIRTRPPRLPRPRPRPIYQPRP — lower, -0.364
- RRIRYRPPRLPRPRPRPCDVPRP — lower, -0.739
- RRIRYRPPRLPRPRPRPNHEPRP — lower, -0.657
- RRIRSRPPRLPRPRPRPMIMPRP — within 0.2 log units, -0.0825
- RRIRARPPRLPRPRPRPADMPRP — within 0.2 log units, 0.194
- RRIRCRPPRLPRPRPRPNMSPRP — lower, -0.204
- RRIRVRPPRLPRPRPRPYTDPRP — lower, -0.339
- RRIRNRPPRLPRPRPRPPFKPRP — lower, -0.325
- RRIRQRPPRLPRPRPRPQERPRP — within 0.2 log units, -0.00247
- RRIRERPPRLPRPRPRPGPHPRP — within 0.2 log units, 0.00422
- RRIRCRPPRLPRPRPRPMQKPRP — within 0.2 log units, 0.0364
- RRIRGRPPRLPRPRPRPGVSPRP — higher, 0.889
- RRIRYRPPRLPRPRPRPLHPPRP — within 0.2 log units, -0.0607
- RRIRPRPPRLPRPRPRPYYQPRP — lower, -0.496
- RRIRGRPPRLPRPRPRPSLTPRP — higher, 0.78
- RRIRRRPPRLPRPRPRPYRTPRP — lower, -0.394
- RRIRCRPPRLPRPRPRPSTGPRP — lower, -0.354
- RRIRIRPPRLPRPRPRPETQPRP — within 0.2 log units, 0.0575
- RRIRKRPPRLPRPRPRPDIGPRP — within 0.2 log units, -0.0485
- RRIRGRPPRLPRPRPRPAHPPRP — higher, 0.754
- RRIRNRPPRLPRPRPRPAHSPRP — within 0.2 log units, 0.111
- RRIRGRPPRLPRPRPRPKTAPRP — higher, 0.808
- RRIRARPPRLPRPRPRPDINPRP — within 0.2 log units, 0.0789
- RRIRWRPPRLPRPRPRPNPDPRP — within 0.2 log units, 0.167
- RRIRLRPPRLPRPRPRPAPPPRP — higher, 0.676
- RRIRARPPRLPRPRPRPYTLPRP — lower, -0.213
- RRIRKRPPRLPRPRPRPRMPPRP — higher, 0.363
- RRIRNRPPRLPRPRPRPIHNPRP — lower, -0.976
- RRIRPRPPRLPRPRPRPTGTPRP — within 0.2 log units, 0.104
- RRIRMRPPRLPRPRPRPGHLPRP — within 0.2 log units, 0.0373
- RRIRNRPPRLPRPRPRPHRQPRP — lower, -0.0962
- RRIRRRPPRLPRPRPRPQSCPRP — within 0.2 log units, 0.107
- RRIRNRPPRLPRPRPRPSGMPRP — lower, -0.207
- RRIRRRPPRLPRPRPRPLALPRP — higher, 0.396
- RRIRLRPPRLPRPRPRPQEPPRP — within 0.2 log units, -0.0198
- RRIRERPPRLPRPRPRPRKLPRP — within 0.2 log units, -0.0356
- RRIRERPPRLPRPRPRPRQIPRP — within 0.2 log units, 0.0409
- RRIRNRPPRLPRPRPRPQQEPRP — lower, -0.124
- RRIRERPPRLPRPRPRPPCYPRP — lower, -0.396
- RRIRMRPPRLPRPRPRPPDEPRP — higher, 2.96
- RRIRQRPPRLPRPRPRPTWEPRP — within 0.2 log units, 0.0645
- RRIRIRPPRLPRPRPRPYFTPRP — lower, -0.702
- RRIRQRPPRLPRPRPRPGWEPRP — within 0.2 log units, -0.00991
- RRIRQRPPRLPRPRPRPPRWPRP — within 0.2 log units, 0.303
- RRIRQRPPRLPRPRPRPNKMPRP — within 0.2 log units, -0.0321
- RRIRRRPPRLPRPRPRPLPEPRP — higher, 0.731
- RRIRDRPPRLPRPRPRPICQPRP — within 0.2 log units, 0.0244
- RRIRHRPPRLPRPRPRPWGDPRP — within 0.2 log units, 0.0821
- RRIRRRPPRLPRPRPRPFVGPRP — lower, -0.229
- RRIRRRPPRLPRPRPRPEILPRP — within 0.2 log units, 0.14
- RRIRERPPRLPRPRPRPVFIPRP — lower, -0.281
- RRIRCRPPRLPRPRPRPKLHPRP — lower, -0.113
- RRIRLRPPRLPRPRPRPQSDPRP — lower, -0.205
- RRIRYRPPRLPRPRPRPLSMPRP — within 0.2 log units, -0.036
- RRIRIRPPRLPRPRPRPSLQPRP — lower, -0.331
- RRIRHRPPRLPRPRPRPMLCPRP — within 0.2 log units, -0.0124
- RRIRCRPPRLPRPRPRPRRDPRP — within 0.2 log units, 0.0823
- RRIRARPPRLPRPRPRPMGIPRP — within 0.2 log units, -0.00146
- RRIRLRPPRLPRPRPRPCWQPRP — within 0.2 log units, 0.00378
- RRIRQRPPRLPRPRPRPTWWPRP — higher, 0.314
- RRIRMRPPRLPRPRPRPGIWPRP — higher, 0.379
- RRIRARPPRLPRPRPRPYCWPRP — lower, -0.258
- RRIRWRPPRLPRPRPRPGWMPRP — higher, 0.366
- RRIRDRPPRLPRPRPRPKAPPRP — higher, 0.341
- RRIRNRPPRLPRPRPRPFMGPRP — lower, -0.168
- RRIRCRPPRLPRPRPRPDGKPRP — within 0.2 log units, -0.0306
- RRIRDRPPRLPRPRPRPQWMPRP — lower, -0.176
- RRIRYRPPRLPRPRPRPNFSPRP — lower, -0.401
- RRIRNRPPRLPRPRPRPFDWPRP — within 0.2 log units, 0.0435
- RRIRDRPPRLPRPRPRPYVEPRP — lower, -0.125
- RRIRGRPPRLPRPRPRPRRNPRP — higher, 0.609
- RRIRWRPPRLPRPRPRPCMMPRP — lower, -0.229
- RRIRNRPPRLPRPRPRPDGFPRP — lower, -0.104
- RRIRDRPPRLPRPRPRPHHLPRP — within 0.2 log units, -0.0476
- RRIRCRPPRLPRPRPRPQALPRP — within 0.2 log units, 0.0319
- RRIRDRPPRLPRPRPRPMTLPRP — within 0.2 log units, 0.0841
- RRIRMRPPRLPRPRPRPFSLPRP — lower, -0.282
- RRIRMRPPRLPRPRPRPAIVPRP — lower, -0.161
- RRIRFRPPRLPRPRPRPVCRPRP — within 0.2 log units, -0.0676
- RRIRRRPPRLPRPRPRPFSPPRP — lower, -0.173
- RRIRKRPPRLPRPRPRPFCEPRP — within 0.2 log units, -0.0765
- RRIRIRPPRLPRPRPRPVWNPRP — lower, -0.576
- RRIRCRPPRLPRPRPRPIRNPRP — lower, -0.182
- RRIRSRPPRLPRPRPRPLMEPRP — within 0.2 log units, -0.0249
- RRIRARPPRLPRPRPRPRQAPRP — higher, 0.414
- RRIRERPPRLPRPRPRPAIMPRP — lower, -0.299
- RRIRRRPPRLPRPRPRPNQVPRP — within 0.2 log units, 0.12
- RRIRFRPPRLPRPRPRPDQIPRP — lower, -0.0948
- RRIRKRPPRLPRPRPRPKNWPRP — higher, 0.474
- RRIRMRPPRLPRPRPRPFETPRP — within 0.2 log units, -0.00884
- RRIRSRPPRLPRPRPRPPKCPRP — within 0.2 log units, -0.087
- RRIRTRPPRLPRPRPRPIWYPRP — lower, -0.601
